# Experimental data taken from PMC5336186 (Nature cell biology, 2017).
# B1: recombinant BCAR3 (natural protein, UniProt O75815 1-825, looked up)
# chain: MAAGKFASLPRNMPVNHQFPLASSMDLLSSRSPLAEHRPDAYQDVSIHGTLPRKKKGPPPIRSCDDFSHMGTLPHSKSPRQNSPVTQDGIQESPWQDRHGETFTFRDPHLLDPTVEYVKFSKERHIMDRTPEKLKKELEEELLLSSEDLRSHAWYHGRIPRQVSENLVQRDGDFLVRDSLSSPGNFVLTCQWKNLAQHFKINRTVLRLSEAYSRVQYQFEMESFDSIPGLVRCYVGNRRPISQQSGAIIFQPINRTVPLRCLEEHYGTSPGQAREGSLTKGRPDVAKRLSLTMGGVQAREQNLPRGNLLRNKEKSGSQPACLDHMQDRRALSLKAHQSESYLPIGCKLPPQSSGVDTSPCPNSPVFRTGSEPALSPAVVRRVSSDARAGEALRGSDSQLCPKPPPKPCKVPFLKVPSSPSAWLNSEANYCELNPAFATGCGRGAKLPSCAQGSHTELLTAKQNEAPGPRNSGVNYLILDDDDRERPWEPAAAQMEKGQWDKGEFVTPLLETVSSFRPNEFESKFLPPENKPLETAMLKRAKELFTNNDPKVIAQHVLSMDCRVARILGVSEEMRRNMGVSSGLELITLPHGHQLRLDIIERHNTMAIGIAVDILGCTGTLEDRAATLSKIIQVAVELKDSMGDLYSFSALMKALEMPQITRLEKTWTALRHQYTQTAILYEKQLKPFSKLLHEGRESTCVPPNNVSVPLLMPLVTLMERQAVTFEGTDMWEKNDQSCEIMLNHLATARFMAEAADSYRMNAERILAGFQPDEEMNEICKTEFQMRLLWGSKGAQVNQTERYEKFNQILTALSRKLEPPPVKQAEL
# Columns and labels:
# [1] = biological target: T1, GST-LLGL2 phosphorylated at Tyr499 (P-LLGL2) (UniProt Q6P1M3 1-1020, phosphotyrosine at Tyr499); experiment: pull-down
# T1 sequence (looked up): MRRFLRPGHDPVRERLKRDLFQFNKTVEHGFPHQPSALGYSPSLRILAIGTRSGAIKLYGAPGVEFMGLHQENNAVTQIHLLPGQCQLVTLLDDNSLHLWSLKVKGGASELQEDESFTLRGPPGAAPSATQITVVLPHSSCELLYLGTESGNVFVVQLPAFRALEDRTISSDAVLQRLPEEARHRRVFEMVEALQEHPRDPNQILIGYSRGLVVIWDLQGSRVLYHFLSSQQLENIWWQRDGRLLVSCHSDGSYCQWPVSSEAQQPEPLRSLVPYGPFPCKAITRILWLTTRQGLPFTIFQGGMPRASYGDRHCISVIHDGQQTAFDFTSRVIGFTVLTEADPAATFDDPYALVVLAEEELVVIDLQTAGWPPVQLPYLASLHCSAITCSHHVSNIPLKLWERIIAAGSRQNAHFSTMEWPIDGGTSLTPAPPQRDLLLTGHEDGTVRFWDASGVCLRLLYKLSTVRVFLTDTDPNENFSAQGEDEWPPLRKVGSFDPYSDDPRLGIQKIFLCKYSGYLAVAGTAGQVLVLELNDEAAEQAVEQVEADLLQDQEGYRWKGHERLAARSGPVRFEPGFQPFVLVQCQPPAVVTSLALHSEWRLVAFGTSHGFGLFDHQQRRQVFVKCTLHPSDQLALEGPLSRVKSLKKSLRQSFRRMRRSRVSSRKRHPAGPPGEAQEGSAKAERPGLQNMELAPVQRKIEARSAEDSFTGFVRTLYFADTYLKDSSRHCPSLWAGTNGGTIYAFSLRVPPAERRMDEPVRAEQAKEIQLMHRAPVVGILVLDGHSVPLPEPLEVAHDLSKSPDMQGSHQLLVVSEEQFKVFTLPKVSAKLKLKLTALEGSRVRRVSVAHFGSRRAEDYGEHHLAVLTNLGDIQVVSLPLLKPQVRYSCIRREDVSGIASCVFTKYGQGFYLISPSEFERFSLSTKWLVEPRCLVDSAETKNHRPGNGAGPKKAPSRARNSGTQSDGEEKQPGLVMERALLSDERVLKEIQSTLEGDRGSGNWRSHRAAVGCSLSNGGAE
# [2] = biological target: T2, GST-LLGL2, unphosphorylated (No-P) (UniProt Q6P1M3 1-1020); experiment: pull-down
# T2 sequence (looked up): T1 sequence (looked up)
binder,measurement,setting,value
B1,binding result,[1],binds
same,binding result,[2],binds
